The experiment addresses NnlA (N-nitroglycine lyase) from Variovorax sp. strain JS1663, tag-free after TEV cleavage (Variovorax sp. strain JS1663). Description: SEC.

Consider “NnlA (N-nitroglycine lyase) from Variovorax sp. strain JS1663, tag-free after TEV cleavage (enzyme)”, for which the stoichiometry N (as a rule, the number of molecules, sites or subunits per partner or assembly) was 2.

(Values after publication doi:10.1101/2022.06.19.496723.)
